# Experimental data as given in the supplement of paper PMC11316812.
# ± gives the standard deviation of the averaged measurements.
# How the values were obtained:
# MCF7 = assay: percentage of EdU-negative (G0-arrested) nuclei per well, 72 h; higher = more G0 arrest; settings: reference: sequence is the full UniProt precursor, the tested protein was the secreted form or ectodomain
# hTERT-HMEC = assay: as above; settings: reference: sequence is the full UniProt precursor, the tested protein was the secreted form or ectodomain
# [1] = protein concentration 0.00925 µM
# [2] = protein concentration 0.0925 µM
# [3] = protein concentration 0.007835 µM
# [4] = protein concentration 0.07835 µM
# [5] = protein concentration 0.01503 µM
# [6] = protein concentration 0.1503 µM
# [7] = protein concentration 0.0238325 µM
# [8] = protein concentration 0.238325 µM
# [9] = protein concentration 0.0225 µM
# 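Also: secreted proteins added to cultured cells, EdU pulse at the end, nuclei found by Hoechst imaging, EdU status from nuclear versus surrounding ring intensity ratio, PBS as neutral control.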
sequence,measurement,setting,value
MLPAPAAPRWPPLLLLLLLLLPLARGAPARPAAGGQASELVVPTRLPGSAGELALHLSAFGKGFVLRLAPDDSFLAPEFKIERLGGSGRATGGERGLRGCFFSGTVNGEPESLAAVSLCRGLSGSFLLDGEEFTIQPQGAGGSLAQPHRLQRWGPAGARPLPRGPEWEVETGEGQRQERGDHQEDSEEESQEEEAEGASEPPPPLGATSRTKRFVSEARFVETLLVADASMAAFYGADLQNHILTLMSVAARIYKHPSIKNSINLMVVKVLIVEDEKWGPEVSDNGGLTLRNFCNWQRRFNQPSDRHPEHYDTAILLTRQNFCGQEGLCDTLGVADIGTICDPNKSCSVIEDEGLQAAHTLAHELGHVLSMPHDDSKPCTRLFGPMGKHHVMAPLFVHLNQTLPWSPCSAMYLTELLDGGHGDCLLDAPAAALPLPTGLPGRMALYQLDQQCRQIFGPDFRHCPNTSAQDVCAQLWCHTDGAEPLCHTKNGSLPWADGTPCGPGHLCSEGSCLPEEEVERPKPVADGGWAPWGPWGECSRTCGGGVQFSHRECKDPEPQNGGRYCLGRRAKYQSCHTEECPPDGKSFREQQCEKYNAYNYTDMDGNLLQWVPKYAGVSPRDRCKLFCRARGRSEFKVFEAKVIDGTLCGPETLAICVRGQCVKAGCDHVVDSPRKLDKCGVCGGKGNSCRKVSGSLTPTNYGYNDIVTIPAGATNIDVKQRSHPGVQNDGNYLALKTADGQYLLNGNLAISAIEQDILVKGTILKYSGSIATLERLQSFRPLPEPLTVQLLTVPGEVFPPKVKYTFFVPNDVDFSMQSSKERATTNIIQPLLHAQWVLGDWSECSSTCGAGWQRRTVECRDPSGQASATCNKALKPEDAKPCESQLCPL [Q9UP79],percentage of EdU-negative,MCF7; [1],25.7 ± 2%
same,percentage of EdU-negative,MCF7; [2],26.53 ± 0.069%
same,percentage of EdU-negative,hTERT-HMEC; [1],5.77 ± 1.1%
same,percentage of EdU-negative,hTERT-HMEC; [2],6.06 ± 0.51%
MLPARCARLLTPHLLLVLVQLSPARGHRTTGPRFLISDRDPQCNLHCSRTQPKPICASDGRSYESMCEYQRAKCRDPTLGVVHRGRCKDAGQSKCRLERAQALEQAKKPQEAVFVPECGEDGSFTQVQCHTYTGYCWCVTPDGKPISGSSVQNKTPVCSGSVTDKPLSQGNSGRKDDGSKPTPTMETQPVFDGDEITAPTLWIKHLVIKDSKLNNTNIRNSEKVYSCDQERQSALEEAQQNPREGIVIPECAPGGLYKPVQCHQSTGYCWCVLVDTGRPLPGTSTRYVMPSCESDARAKTTEADDPFKDRELPGCPEGKKMEFITSLLDALTTDMVQAINSAAPTGGGRFSEPDPSHTLEERVVHWYFSQLDSNSSNDINKREMKPFKRYVKKKAKPKKCARRFTDYCDLNKDKVISLPELKGCLGVSKEGRLV [Q9H4F8],percentage of EdU-negative,MCF7; [3],26.5 ± 1.4%
same,percentage of EdU-negative,MCF7; [4],31.1 ± 0.71%
same,percentage of EdU-negative,hTERT-HMEC; [3],4.85 ± 0.098%
same,percentage of EdU-negative,hTERT-HMEC; [4],16.6 ± 0.68%
MLPCASCLPGSLLLWALLLLLLGSASPQDSEEPDSYTECTDGYEWDPDSQHCRDVNECLTIPEACKGEMKCINHYGGYLCLPRSAAVINDLHGEGPPPPVPPAQHPNPCPPGYEPDDQDSCVDVDECAQALHDCRPSQDCHNLPGSYQCTCPDGYRKIGPECVDIDECRYRYCQHRCVNLPGSFRCQCEPGFQLGPNNRSCVDVNECDMGAPCEQRCFNSYGTFLCRCHQGYELHRDGFSCSDIDECSYSSYLCQYRCINEPGRFSCHCPQGYQLLATRLCQDIDECESGAHQCSEAQTCVNFHGGYRCVDTNRCVEPYIQVSENRCLCPASNPLCREQPSSIVHRYMTITSERSVPADVFQIQATSVYPGAYNAFQIRAGNSQGDFYIRQINNVSAMLVLARPVTGPREYVLDLEMVTMNSLMSYRASSVLRLTVFVGAYTF,percentage of EdU-negative,MCF7; [5],23.73 ± 0.068%
same,percentage of EdU-negative,MCF7; [6],33 ± 1.2%
same,percentage of EdU-negative,hTERT-HMEC; [5],4.54 ± 0.11%
same,percentage of EdU-negative,hTERT-HMEC; [6],7.23 ± 0.73%
MLPCLVVLLAALLSLRLGSDAHGTELPSPPSVWFEAEFFHHILHWTPIPNQSESTCYEVALLRYGIESWNSISNCSQTLSYDLTAVTLDLYHSNGYRARVRAVDGSRHSNWTVTNTRFSVDEVTLTVGSVNLEIHNGFILGKIQLPRPKMAPANDTYESIFSHFREYEIAIRKVPGNFTFTHKKVKHENFSLLTSGEVGEFCVQVKPSVASRSNKGMWSKEECISLTRQYFTVTNVIIFFAFVLLLSGALAYCLALQLYVRRRKKLPSVLLFKKPSPFIFISQRPSPETQDTIHPLDEEAFLKVSPELKNLDLHGSTDSGFGSTKPSLQTEEPQFLLPDPHPQADRTLGNREPPVLGDSCSSGSSNSTDSGICLQEPSLSPSTGPTWEQQVGSNSRGQDDSGIDLVQNSEGRAGDTQGGSALGHHSPPEPEVPGEEDPAAVAFQGYLRQTRCAEEKATKTGCLEEESPLTDGLGPKFGRCLVDEAGLHPPALAKGYLKQDPLEMTLASSGAPTGQWNQPTEEWSLLALSSCSDLGISDWSFAHDLAPLGCVAAPGGLLGSFNSDLVTLPLISSLQSSE,percentage of EdU-negative,MCF7; [7],27.3 ± 1.9%
same,percentage of EdU-negative,MCF7; [8],25.3 ± 2.5%
same,percentage of EdU-negative,hTERT-HMEC; [7],5.02 ± 0.64%
same,percentage of EdU-negative,hTERT-HMEC; [8],5.96 ± 0.77%
MLPGAWLLWTSLLLLARPAQPCPMGCDCFVQEVFCSDEELATVPLDIPPYTKNIIFVETSFTTLETRAFGSNPNLTKVVFLNTQLCQFRPDAFGGLPRLEDLEVTGSSFLNLSTNIFSNLTSLGKLTLNFNMLEALPEGLFQHLAALESLHLQGNQLQALPRRLFQPLTHLKTLNLAQNLLAQLPEELFHPLTSLQTLKLSNNALSGLPQGVFGKLGSLQELFLDSNNISELPPQVFSQLFCLERLWLQRNAITHLPLSIFASLGNLTFLSLQWNMLRVLPAGLFAHTPCLVGLSLTHNQLETVAEGTFAHLSNLRSLMLSYNAITHLPAGIFRDLEELVKLYLGSNNLTALHPALFQNLSKLELLSLSKNQLTTLPEGIFDTNYNLFNLALHGNPWQCDCHLAYLFNWLQQYTDRLLNIQTYCAGPAYLKGQVVPALNEKQLVCPVTRDHLGFQVTWPDESKAGGSWDLAVQERAARSQCTYSNPEGTVVLACDQAQCRWLNVQLSPQQGSLGLQYNASQEWDLRSSCGSLRLTVSIEARAAGP,percentage of EdU-negative,MCF7; protein concentration 0.016 µM,25.6 ± 2.9%
same,percentage of EdU-negative,MCF7; protein concentration 0.16 µM,31.1 ± 1.1%
same,percentage of EdU-negative,hTERT-HMEC; protein concentration 0.016 µM,4.47 ± 0.7%
same,percentage of EdU-negative,hTERT-HMEC; protein concentration 0.16 µM,9.62 ± 2.1%
MLPLLLLPLLWGGSLQEKPVYELQVQKSVTVQEGLCVLVPCSFSYPWRSWYSSPPLYVYWFRDGEIPYYAEVVATNNPDRRVKPETQGRFRLLGDVQKKNCSLSIGDARMEDTGSYFFRVERGRDVKYSYQQNKLNLEVTALIEKPDIHFLEPLESGRPTRLSCSLPGSCEAGPPLTFSWTGNALSPLDPETTRSSELTLTPRPEDHGTNLTCQMKRQGAQVTTERTVQLNVSYAPQTITIFRNGIALEILQNTSYLPVLEGQALRLLCDAPSNPPAHLSWFQGSPALNATPISNTGILELRRVRSAEEGGFTCRAQHPLGFLQIFLNLSVYSLPQLLGPSCSWEAEGLHCRCSFRARPAPSLCWRLEEKPLEGNSSQGSFKVNSSSAGPWANSSLILHGGLSSDLKVSCKAWNIYGSQSGSVLLLQGRSNLGTGVVPAALGGAGVMALLCICLCLIFFLIVKARRKQAAGRPEKMDDEDPIMGTITSGSRKKPWPDSPGDQASPPGDAPPLEEQKELHYASLSFSEMKSREPKDQEAPSTTEYSEIKTSK,percentage of EdU-negative,MCF7; [9],25 ± 0.77%
same,percentage of EdU-negative,MCF7; protein concentration 0.225 µM,29.26 ± 0.077%
same,percentage of EdU-negative,hTERT-HMEC; [9],5.12 ± 0.15%
same,percentage of EdU-negative,hTERT-HMEC; protein concentration 0.225 µM,5.64 ± 1%
